# Reference: the supplement of paper PMC12764529
# Assay: folding stability dG unfold (combined trypsin and chymotrypsin); higher = more stable
# Procedure: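 Folding stability of de novo designed mini-proteins (<80 aa, no Cys; designed by TrROS, TrMRF, ProteinMPNN and the joint model) was measured by cDNA display proteolysis with trypsin and chymotrypsin. Each protease was used at 11 concentrations in a threefold dilution series plus a no-protease condition. K50 was inferred by Bayesian fitting of sequencing counts, and dG unfold was derived against a sequence-predicted unfolded-state K50 (Tsuboyama et al. method). Sequences shown include variable-length N-terminal GS-type padding (SAGGSAGG...) inside a display construct carrying a PA tag. Rows were kept only if the AF2 dimer inter-PAE was >15, to exclude likely homo-oligomers.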
row,Sequence,folding stability dG unfold
1,EPEYVVFVDINPVFTRVDENGNVLEEFPRKVPYTGPGKDPEKVREELEREYGPPVKILKTLPKSEVDAGLLS [r1_493_JUSTAS],< -1 kcal/mol
2,GMRPVTATIEIGPNGKLTLQPAVGPSTVVPVKSKEEGIAVVKELVPPDRPITLTFYEKSKKISTEPIEIPPS [r1_276_JUSTAS],< -1 kcal/mol
3,KVPAGVEDVKVVKGPLTVKITAPVKNPNVPIKVGNKDGKVVSEKWKVDKAAGKVTVEVPVKKANEVTFNPES [r1_138_TrMRF],< -1 kcal/mol
4,MKIVIDKDGNIRIEIIDKDGKKITLTLPVKTLEEALQKIKDLIRELFPDAKDLKVKVVEVKDGYVVIEVEPS [r1_389_TrROS_Hall],> 6 kcal/mol
5,PIITVSSLEELKKAIKELVEKIVEEAKKAGYPDKKVIVSIPVVLIDEKTGKPKILPILIEIYPDGTVKIYGS [r1_316_TrMRF],> 6 kcal/mol
6,PINPEIAEKLKVAIANKLKEAGYKVKSVSISPLPDGTISGKVGDKTVTLPLPNGGTAGISVEAEKVSPEEAS [r1_31_TrMRF],< -1 kcal/mol
7,SADWYYWKNPKDGKEHTVDPEELSPEFAKKGIEPEEPVPPVINIDVDSAEQADELADEFPNKVQVQPNGSAG [r14_638_TrROS],< -1 kcal/mol
8,SAGAKLYTVKAPGSSELLKGLKEKGVEILGTEENVVVVKVPVVPPLTPEAIEEAKKEGLTLEEAIKKASAGG [r19_115_TrMRF],< -1 kcal/mol
9,SAGGEFKLKREEDPDGERKITLEFPGWPYEVVIPKNAKDLPPGNPIYVRGGGGTRTMPIKDLLPELLNSAGG [r13_97_TrROS],< -1 kcal/mol
10,SAGGEGEELIIPSSFPLEKIEELEKAHPDAKAEIVEINLRGPVLLPGGGVRPVPSFLKVRLYRREERSAGGS [r8_172_TrMRF],< -1 kcal/mol
11,SAGGGGMTVEPVAERRFPSGRRITFYRRELPTPTVLEDVVVEYPDGSVRTITVPVGEEAAAVAAVLASAGGS [r16_588_JUSTAS],< -1 kcal/mol
12,SAGGGSSMSPISDQQTSSSLPDGTTVTRTTTTYPTSVLVTTTTTDPATGAPTTTTTTYTTPGSSVAGSAGGS [r16_419_JUSTAS],< -1 kcal/mol
13,SAGGGWEKIPITPNDKNQAKEIADEFADKLQQDPGIPKEVEIDVQPPPNNQYWIEVEYPGKKLEIPISAGGS [r16_356_TrROS],< -1 kcal/mol
14,SAGGIRMPPGQTQTFKLPGRKIEVHMGPNGPIYIEIENPGNGEPVEVPMRGDMTIDEMADAILDKLGSAGGS [r8_158_TrROS],< -1 kcal/mol
15,SAGGKDAIVNVVEIPIKIEVKTKTKNPILPDGIPIPETELEVKIEIPIKVKPVKVKLEKPGKIVSVEDSAGG [r13_148_TrMRF],< -1 kcal/mol
16,SAGGKPMIHINMEENPNGNPYMRVQVMRMDPKNNGWKPVEEVRFDSPQDMRDEAKELADKEGVYLMISAGGS [r16_512_TrROS],< -1 kcal/mol
17,SAGGMEEIAEKLPVTKIETLEVDPEPPVVKVKLTLKDESGTEKEIELTIELPPEPLPVPKFPPERILLSAGG [r13_608_JUSTAS],< -1 kcal/mol
18,SAGGMIVLEFTDPSELEKLEEKVEEIKEELIKEGIKPPNVEIKVTRTTRKLPNGTERYTAPVSIKLPSAGGS [r16_591_JUSTAS],< -1 kcal/mol
19,SAGGMKTIEYPVVMDEEEAVKLVEELVAKAKAEGEETVVKVEVYRIGKGPDGVPTREKLGTYEVEVPGSAGG [r13_974_JUSTAS],< -1 kcal/mol
20,SAGGMKTIKLPPFTEEELEKVIEEAEKNPNSDVKITLPEGKEYYIKPPGKLKELKVEELPPLPESLESAGGS [r16_248_JUSTAS],< -1 kcal/mol
21,SAGGMKTVVTTEPATFDATDPNTGVPIGTVTIGPVVTTKPPNAVTTHYTFRIGGTEVATSTTTNPGLASAGG [r13_758_JUSTAS],< -1 kcal/mol

row,Sequence,folding stability dG unfold
1,SAGGMRLADTLEEVENAAPGEIVALRAPDPLTPRPVVLVFRNPDGELGPLAYADADGNIHLPEELKEAGSAG [r5_490_TrMRF],< -1 kcal/mol
2,SAGGMSIRELLKEKGIPIKVENEPTDGRPRMKITIQDNDKPVKIDMPMDDPERMIRDAAKELGLKPISAGGS [r8_226_TrROS],< -1 kcal/mol
3,SAGGMTLEEVRALAQRVSREPLPGGGSRWVVTFPRPVPGGPAAPVTREIPVPADRPDATEEEVLARLVSAGG [r13_319_JUSTAS],< -1 kcal/mol
4,SAGGMTSEVIETTEEEPERLIKKTFKVTYDENGTPKPELLKVETSPVPEEEIDPSNAPKEKAEKLGLLSAGG [r13_964_JUSTAS],< -1 kcal/mol
5,SAGGMVVELPSGLSPEELERAAEEIAAELPRRGVDPVEVTIEPVREVAPPDGPPVRLYRITIDTVPPSAGGS [r16_266_JUSTAS],< -1 kcal/mol
6,SAGGNKITIEVNMNPEEGYYMVPIEIPRRDPNGEPEKRKIEVMVPMSPNAQEKAKNLANKLGIDKIYSAGGS [r8_381_TrROS],< -1 kcal/mol
7,SAGGPGKYRVIFYPKDTDKPIEADVPASHIKKFDPKNNFIEISAPPGPTLTIPDPDKVKKVIIEPIPSAGGS [r8_111_TrMRF],< -1 kcal/mol
8,SAGGPNFEIEPEWDPDNGIVKETIKVPPGMTPEAINDALEIEFPDGMEVQIKPIKDGTIKVYMRMPKSAGGS [r8_255_TrROS],< -1 kcal/mol
9,SAGGPPKIKITDIRPNKGHMRYKIKDPNKEVEIHMHGNSMHIEYPDGKEKTFDGPGSFEDAAKRIIEKSAGG [r13_98_TrROS],< -1 kcal/mol
10,SAGGPPKKIEDIKIEDWRYDPENNQVTNTIELENDNGKEREIDVQMPNEDMEDMPPEEMLKAAKDFIDSAGG [r13_512_TrROS],< -1 kcal/mol
11,SAGGRGPGLPVSERKIVETRDLDPDEVSEEEIAERIKEENPDAVVEELEVDTKESKAVFKIKVKKLESAGGS [r8_202_JUSTAS],< -1 kcal/mol
12,SAGGRYLTLRIPPNHPGDIDIEPVPADDMPPGWGYKIYSPKKGHTQTFPLDNADELLDHPGIDEIEPVSAGG [r19_302_TrROS],< -1 kcal/mol
13,SAGGSAASRVSVEKLPNGTVVTPVEVEVTTYKPYPSYDGTPTTVPVTTRTTRTVTTEGNVVTTEVASAGGSA [r15_883_JUSTAS],< -1 kcal/mol
14,SAGGSAATVVDPSTGSTYTFTPEGSGYRITRTLVTPDPTSDAVSTAPTTELLPPSEIPPELLARLSSAGGSA [r15_703_JUSTAS],< -1 kcal/mol
15,SAGGSAEKPIPFGNYQIRIHEIDPKEGKITIHVPDNMPPNMKEQARDWLQERGLPIEVEPVPAEDISAGGSA [r15_570_TrROS],< -1 kcal/mol
16,SAGGSAFFRIKVEKNNGKKREIMFPIPENHDPSEAREMVKELAKNIARKQGHPNVPIKVTDIEPFPSAGGSA [r15_463_TrROS],< -1 kcal/mol
17,SAGGSAGGAEAVEAAKAKLPPDEERTVVVPDPDDPSRVTTYTLTARGDEVEVPVTTEPVPPGLESAGGSAGG [r6_393_JUSTAS],< -1 kcal/mol
18,SAGGSAGGDNKPLRVRIRSPANGQKMKFKIKPDKIEPGKTIEIKHGDKPHTFNINPAQIDELEPSAGGSAGG [r6_461_TrROS],< -1 kcal/mol
19,SAGGSAGGEKPLKVTIKVKEKRLTENGIPEEFEKEIVVEAPLEEATKLVKAIPKDKVVSVEVEGSAGGSAGG [r6_984_TrMRF],< -1 kcal/mol
20,SAGGSAGGEVEEEALKVAEELRREGKTGPVEKTVDIVVKTPENVPIPLNITVTVEPPSGVVTVNSAGGSAGG [r6_102_JUSTAS],< -1 kcal/mol
